Test results taken from the supplement of paper PMC9233669.
This sample holds only a part of the variants without activity.

Experiments:
biotinyl-Phe-oxazolone = experiment: self-aminoacylation, catalytic enhancement (BFO) (fold over background); higher = more active; k-Seq, kA / k0A0; sequences stand for … in GGGAAUGGAUCCACAUCUACGAAUUC…UUCACUGCAGACUUGACGAAGCUG
Summary of the method: (§1)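 Mutagenized RNA pools with a 21-nt variable region (0.43 μM) reacted with each biotinyl-aminoacyl-oxazolone at 2–1250 μM. Reactions ran in 50 μL HEPES/NaCl/KCl/MgCl2/CaCl2 buffer with 5% acetonitrile, pH 6.9–7.0, for 90 minutes at room temperature. Streptavidin-captured RNA was quantified by triplicate qPCR and Illumina sequencing, and per-sequence fraction reacted was fit to a pseudo-first-order model with 1000 bootstraps. Catalytic enhancement is median kA divided by the uncatalyzed rate, the low-activity peak of a bimodal Gaussian fit.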

biotinyl-Ile-oxazolone = experiment: self-aminoacylation, catalytic enhancement (BIO) (fold over background); higher = more active; k-Seq, kA / k0A0; sequences stand for … in GGGAAUGGAUCCACAUCUACGAAUUC…UUCACUGCAGACUUGACGAAGCUG
Summary of the method: as §1

biotinyl-Met-oxazolone = experiment: self-aminoacylation, catalytic enhancement (BMO) (fold over background); higher = more active; k-Seq, kA / k0A0; sequences stand for … in GGGAAUGGAUCCACAUCUACGAAUUC…UUCACUGCAGACUUGACGAAGCUG
Summary of the method: as §1

biotinyl-Val-oxazolone = experiment: self-aminoacylation, catalytic enhancement (BVO) (fold over background); higher = more active; k-Seq, kA / k0A0; sequences stand for … in GGGAAUGGAUCCACAUCUACGAAUUC…UUCACUGCAGACUUGACGAAGCUG
Summary of the method: as §1

biotinyl-Leu-oxazolone = experiment: self-aminoacylation, catalytic enhancement (BLO) (fold over background); higher = more active; k-Seq, kA / k0A0; sequences stand for … in GGGAAUGGAUCCACAUCUACGAAUUC…UUCACUGCAGACUUGACGAAGCUG
Summary of the method: as §1

biotinyl-Trp-oxazolone = experiment: self-aminoacylation, catalytic enhancement (BWO) (fold over background); higher = more active; k-Seq, kA / k0A0; sequences stand for … in GGGAAUGGAUCCACAUCUACGAAUUC…UUCACUGCAGACUUGACGAAGCUG
Summary of the method: as §1

UUUACCCGGGUCAUCGAGUGA [Fam2.1 aminoacylation ribozyme variant]
self-aminoacylation (biotinyl-Phe-oxazolone): 43.1 | self-aminoacylation (biotinyl-Ile-oxazolone): 3.4 | self-aminoacylation (biotinyl-Met-oxazolone): 7.15 | self-aminoacylation (biotinyl-Val-oxazolone): 4.02 | self-aminoacylation (biotinyl-Leu-oxazolone): 7.17 | self-aminoacylation (biotinyl-Trp-oxazolone): 9.17

UUUACCCUAGUCAUCGAGUGA [Fam2.1 aminoacylation ribozyme variant]
self-aminoacylation (biotinyl-Phe-oxazolone): 17.3 | self-aminoacylation (biotinyl-Ile-oxazolone): 2.79 | self-aminoacylation (biotinyl-Met-oxazolone): 5.76 | self-aminoacylation (biotinyl-Val-oxazolone): 3.09 | self-aminoacylation (biotinyl-Leu-oxazolone): 5.04 | self-aminoacylation (biotinyl-Trp-oxazolone): 7.33

UUUACCCUGGUCAUCGAAUGA [Fam2.1 aminoacylation ribozyme variant]
self-aminoacylation (biotinyl-Phe-oxazolone): 1.02 | self-aminoacylation (biotinyl-Ile-oxazolone): 1.31 | self-aminoacylation (biotinyl-Met-oxazolone): 1.22 | self-aminoacylation (biotinyl-Val-oxazolone): 1.05 | self-aminoacylation (biotinyl-Leu-oxazolone): 1.19 | self-aminoacylation (biotinyl-Trp-oxazolone): 1.78

UUUACCCUGGUCAUCGAGUCA [Fam2.1 aminoacylation ribozyme variant]
self-aminoacylation (biotinyl-Phe-oxazolone): 1.06 | self-aminoacylation (biotinyl-Ile-oxazolone): 0.707 | self-aminoacylation (biotinyl-Met-oxazolone): 0.696 | self-aminoacylation (biotinyl-Val-oxazolone): 0.738 | self-aminoacylation (biotinyl-Leu-oxazolone): 0.713 | self-aminoacylation (biotinyl-Trp-oxazolone): 0.585

UUUACCCUGGUCAUCUAGUGA [Fam2.1 aminoacylation ribozyme variant]
self-aminoacylation (biotinyl-Phe-oxazolone): 46.3 | self-aminoacylation (biotinyl-Ile-oxazolone): 4.72 | self-aminoacylation (biotinyl-Met-oxazolone): 8.71 | self-aminoacylation (biotinyl-Val-oxazolone): 4.43 | self-aminoacylation (biotinyl-Leu-oxazolone): 8.63 | self-aminoacylation (biotinyl-Trp-oxazolone): 10.9

UUUCACAUAGGUCAUCGGGUG [Fam2.2 aminoacylation ribozyme variant]
self-aminoacylation (biotinyl-Phe-oxazolone): 56.6 | self-aminoacylation (biotinyl-Ile-oxazolone): 5.3 | self-aminoacylation (biotinyl-Met-oxazolone): 7.92 | self-aminoacylation (biotinyl-Val-oxazolone): 5.12 | self-aminoacylation (biotinyl-Leu-oxazolone): 8.51 | self-aminoacylation (biotinyl-Trp-oxazolone): 7.61

UUUCACCGAGGUCAUCGGGUG [Fam2.2 aminoacylation ribozyme variant]
self-aminoacylation (biotinyl-Phe-oxazolone): 44.3 | self-aminoacylation (biotinyl-Ile-oxazolone): 4.52 | self-aminoacylation (biotinyl-Met-oxazolone): 7.19 | self-aminoacylation (biotinyl-Val-oxazolone): 5.17 | self-aminoacylation (biotinyl-Leu-oxazolone): 6.07 | self-aminoacylation (biotinyl-Trp-oxazolone): 6.08

UUUCACCUACGUCAUCGGGUG [Fam2.2 aminoacylation ribozyme variant]
self-aminoacylation (biotinyl-Phe-oxazolone): 31.6 | self-aminoacylation (biotinyl-Ile-oxazolone): 2.88 | self-aminoacylation (biotinyl-Met-oxazolone): 4.85 | self-aminoacylation (biotinyl-Val-oxazolone): 3.3 | self-aminoacylation (biotinyl-Leu-oxazolone): 5.75 | self-aminoacylation (biotinyl-Trp-oxazolone): 4.58

UUUCACCUAGAUCAUCGGGUG [Fam2.2 aminoacylation ribozyme variant]
self-aminoacylation (biotinyl-Phe-oxazolone): 16.5 | self-aminoacylation (biotinyl-Ile-oxazolone): 2.35 | self-aminoacylation (biotinyl-Met-oxazolone): 2.58 | self-aminoacylation (biotinyl-Val-oxazolone): 2.58 | self-aminoacylation (biotinyl-Leu-oxazolone): 2.82 | self-aminoacylation (biotinyl-Trp-oxazolone): 3.04

UUUCACCUAGCUCAUCGGGUG [Fam2.2 aminoacylation ribozyme variant]
self-aminoacylation (biotinyl-Phe-oxazolone): 1.68 | self-aminoacylation (biotinyl-Ile-oxazolone): 2.03 | self-aminoacylation (biotinyl-Met-oxazolone): 1.77 | self-aminoacylation (biotinyl-Val-oxazolone): 2.73 | self-aminoacylation (biotinyl-Leu-oxazolone): 2.24 | self-aminoacylation (biotinyl-Trp-oxazolone): 2.5

UUUCACCUAGGUCACCGGGUG [Fam2.2 aminoacylation ribozyme variant]
self-aminoacylation (biotinyl-Phe-oxazolone): 26.7 | self-aminoacylation (biotinyl-Ile-oxazolone): 3.8 | self-aminoacylation (biotinyl-Met-oxazolone): 3.77 | self-aminoacylation (biotinyl-Val-oxazolone): 3.87 | self-aminoacylation (biotinyl-Leu-oxazolone): 5.2 | self-aminoacylation (biotinyl-Trp-oxazolone): 5.47

UUUCACCUAGGUCAUCGGCUG [Fam2.2 aminoacylation ribozyme variant]
self-aminoacylation (biotinyl-Phe-oxazolone): 8.98 | self-aminoacylation (biotinyl-Ile-oxazolone): 1.93 | self-aminoacylation (biotinyl-Met-oxazolone): 1.89 | self-aminoacylation (biotinyl-Val-oxazolone): 2.29 | self-aminoacylation (biotinyl-Leu-oxazolone): 1.82 | self-aminoacylation (biotinyl-Trp-oxazolone): 2.74

UUUCACCUAGGUCAUCGGGUU [Fam2.2 aminoacylation ribozyme variant]
self-aminoacylation (biotinyl-Phe-oxazolone): 44.3 | self-aminoacylation (biotinyl-Ile-oxazolone): 6.15 | self-aminoacylation (biotinyl-Met-oxazolone): 10.4 | self-aminoacylation (biotinyl-Val-oxazolone): 5.7 | self-aminoacylation (biotinyl-Leu-oxazolone): 12.6 | self-aminoacylation (biotinyl-Trp-oxazolone): 7.39

UUUCACCUAGGUCAUCGUGUG [Fam2.2 aminoacylation ribozyme variant]
self-aminoacylation (biotinyl-Phe-oxazolone): 4.69 | self-aminoacylation (biotinyl-Ile-oxazolone): 1.19 | self-aminoacylation (biotinyl-Met-oxazolone): 1.43 | self-aminoacylation (biotinyl-Val-oxazolone): 1.27 | self-aminoacylation (biotinyl-Leu-oxazolone): 1.19 | self-aminoacylation (biotinyl-Trp-oxazolone): 1.34

UUUCACCUAGGUCAUUGGGUG [Fam2.2 aminoacylation ribozyme variant]
self-aminoacylation (biotinyl-Phe-oxazolone): 17 | self-aminoacylation (biotinyl-Ile-oxazolone): 2.59 | self-aminoacylation (biotinyl-Met-oxazolone): 2.51 | self-aminoacylation (biotinyl-Val-oxazolone): 2.66 | self-aminoacylation (biotinyl-Leu-oxazolone): 2.57 | self-aminoacylation (biotinyl-Trp-oxazolone): 3.77

UUUCACCUGGGUCAUCGGGUG [Fam2.2 aminoacylation ribozyme variant]
self-aminoacylation (biotinyl-Phe-oxazolone): 24.2 | self-aminoacylation (biotinyl-Ile-oxazolone): 3.99 | self-aminoacylation (biotinyl-Met-oxazolone): 5.12 | self-aminoacylation (biotinyl-Val-oxazolone): 5.26 | self-aminoacylation (biotinyl-Leu-oxazolone): 4.95 | self-aminoacylation (biotinyl-Trp-oxazolone): 6.75

UUUCAGCUAGGUCAUCGGGUG [Fam2.2 aminoacylation ribozyme variant]
self-aminoacylation (biotinyl-Phe-oxazolone): 39 | self-aminoacylation (biotinyl-Ile-oxazolone): 4.98 | self-aminoacylation (biotinyl-Met-oxazolone): 5.9 | self-aminoacylation (biotinyl-Val-oxazolone): 6.04 | self-aminoacylation (biotinyl-Leu-oxazolone): 6.61 | self-aminoacylation (biotinyl-Trp-oxazolone): 7.4

UUUCCCCUAGGUCAUCGGGUG [Fam2.2 aminoacylation ribozyme variant]
self-aminoacylation (biotinyl-Phe-oxazolone): 96.8 | self-aminoacylation (biotinyl-Ile-oxazolone): 6.97 | self-aminoacylation (biotinyl-Met-oxazolone): 11.8 | self-aminoacylation (biotinyl-Val-oxazolone): 6.87 | self-aminoacylation (biotinyl-Leu-oxazolone): 15.1 | self-aminoacylation (biotinyl-Trp-oxazolone): 10.4

UUUUACCUAGGUCAUCGGGUG [Fam2.2 aminoacylation ribozyme variant]
self-aminoacylation (biotinyl-Phe-oxazolone): 56.1 | self-aminoacylation (biotinyl-Ile-oxazolone): 6.78 | self-aminoacylation (biotinyl-Met-oxazolone): 10.3 | self-aminoacylation (biotinyl-Val-oxazolone): 6.67 | self-aminoacylation (biotinyl-Leu-oxazolone): 13.5 | self-aminoacylation (biotinyl-Trp-oxazolone): 10.4

UUUUCCCUGGUCAUCGAGUGA [Fam2.1 aminoacylation ribozyme variant]
self-aminoacylation (biotinyl-Phe-oxazolone): 16.5 | self-aminoacylation (biotinyl-Ile-oxazolone): 5.39 | self-aminoacylation (biotinyl-Met-oxazolone): 11.1 | self-aminoacylation (biotinyl-Val-oxazolone): 5.81 | self-aminoacylation (biotinyl-Leu-oxazolone): 11.1 | self-aminoacylation (biotinyl-Trp-oxazolone): 14.3
